In patent publication US20210363245A1:
Like-named read-outs stand apart in the source and are kept apart here.

What was measured:
Experiment in all cases: cell-based or functional assay
CD20 (human) [1] = target: CD20 (human) (UniProt P11836)
CD19 [2] = target: CD19 (UniProt P15391)
CD19 [3] = target: CD19 (UniProt P15391); remark: listed apart in the source
CD20 (human) [4] = target: CD20 (human) (UniProt P11836); remark: listed apart in the source
CD19 [5] = target: CD19 (UniProt P15391); remark: listed apart in the source
CD20 (human) [6] = target: CD20 (human) (UniProt P11836); remark: listed apart in the source
CD19 [7] = target: CD19 (UniProt P15391); remark: listed apart in the source
CD20 (human) [8] = target: CD20 (human) (UniProt P11836); remark: listed apart in the source

Chain of UniProt P15391 (P15391 20-556 limits assumed): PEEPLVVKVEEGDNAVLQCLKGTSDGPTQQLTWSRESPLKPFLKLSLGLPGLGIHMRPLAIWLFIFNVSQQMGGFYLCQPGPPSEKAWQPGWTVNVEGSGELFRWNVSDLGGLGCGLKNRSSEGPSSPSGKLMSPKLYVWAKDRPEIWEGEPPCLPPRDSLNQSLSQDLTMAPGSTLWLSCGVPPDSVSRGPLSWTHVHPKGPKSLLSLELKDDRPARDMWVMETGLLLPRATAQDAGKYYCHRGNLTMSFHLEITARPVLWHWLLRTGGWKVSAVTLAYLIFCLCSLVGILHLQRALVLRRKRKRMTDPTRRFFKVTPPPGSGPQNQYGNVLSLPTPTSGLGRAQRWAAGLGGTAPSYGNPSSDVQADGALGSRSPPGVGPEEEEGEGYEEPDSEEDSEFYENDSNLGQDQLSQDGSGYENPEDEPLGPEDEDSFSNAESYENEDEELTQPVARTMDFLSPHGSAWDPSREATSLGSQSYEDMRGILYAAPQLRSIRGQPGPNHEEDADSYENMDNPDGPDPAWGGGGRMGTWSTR
Chain of UniProt P11836 (P11836 whole entry): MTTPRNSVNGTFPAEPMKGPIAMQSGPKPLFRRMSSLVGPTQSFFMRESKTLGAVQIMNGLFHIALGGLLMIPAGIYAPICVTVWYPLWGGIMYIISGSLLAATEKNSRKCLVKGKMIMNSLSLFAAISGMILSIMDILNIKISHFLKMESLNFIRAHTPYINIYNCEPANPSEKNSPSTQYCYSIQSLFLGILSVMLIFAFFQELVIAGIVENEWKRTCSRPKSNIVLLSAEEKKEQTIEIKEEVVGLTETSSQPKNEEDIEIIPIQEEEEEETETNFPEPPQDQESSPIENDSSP

Human IgG (antibody)
IFNγ release by Hu1928-2.1.2BB T cells with ST486 CD19-/- cells, human IgG at 0 ug/ml (CD20 (human) [1]): 6490 pg/mL
IFNγ release by Hu1928-2.1.2BB T cells with ST486 CD19-/- cells, human IgG at 6.2 ug/ml (CD20 (human) [1]): 5840 pg/mL
IFNγ release by Hu1928-2.1.2BB T cells with ST486 CD19-/- cells, human IgG at 12.5 ug/ml (CD20 (human) [1]): 5590 pg/mL
IFNγ release by Hu1928-2.1.2BB T cells with ST486 CD19-/- cells, human IgG at 25 ug/ml (CD20 (human) [1]): 5470 pg/mL
IFNγ release by Hu1928-2.1.2BB T cells with ST486 CD19-/- cells, human IgG at 50 ug/ml (CD20 (human) [1]): 6510 pg/mL
IFNγ release by Hu1928-2.1.2BB T cells with ST486 CD19-/- cells, human IgG at 100 ug/ml (CD20 (human) [1]): 5920 pg/mL

C2B8-CD828Z
IFNγ release (ELISA), overnight co-culture with CD19-K562 (CD19 [2]): 1050 pg/mL
IL-2 release (ELISA), overnight co-culture with CD19-K562 (CD19 [2]): < 16 pg/mL
IFNγ release (ELISA), overnight co-culture with CD20-K562 (CD20 (human) [1]): 56700 pg/mL
IFNγ release (ELISA), overnight co-culture with Nalm6 (CD20 (human) [1]): 1290 pg/mL
IFNγ release (ELISA), overnight co-culture with ST486 (CD20 (human) [1]): 14300 pg/mL
IFNγ release (ELISA), overnight co-culture with Toledo (CD20 (human) [1]): 7770 pg/mL
IL-2 release (ELISA), overnight co-culture with CD20-K562 (CD20 (human) [1]): 4620 pg/mL
IL-2 release (ELISA), overnight co-culture with Nalm6 (CD20 (human) [1]): < 16 pg/mL
IL-2 release (ELISA), overnight co-culture with ST486 (CD20 (human) [1]): 215 pg/mL
IL-2 release (ELISA), overnight co-culture with Toledo (CD20 (human) [1]): 104 pg/mL
IFNγ release (ELISA), overnight co-culture with CD19-K562 (CD19 [3]): 55 pg/mL
IFNγ release (ELISA), overnight co-culture with CD20-K562 (CD20 (human) [4]): 36500 pg/mL
IFNγ release (ELISA), overnight co-culture with Nalm6 (CD20 (human) [4]): 800 pg/mL
IFNγ release (ELISA), overnight co-culture with ST486 (CD20 (human) [4]): 9070 pg/mL
IFNγ release (ELISA), overnight co-culture with Toledo (CD20 (human) [4]): 6590 pg/mL

Hu19-CD828Z
IFNγ release (ELISA), overnight co-culture with CD19-K562 (CD19 [2]): 21200 pg/mL
IFNγ release (ELISA), overnight co-culture with Nalm6 (CD19 [2]): 6940 pg/mL
IFNγ release (ELISA), overnight co-culture with ST486 (CD19 [2]): 745 pg/mL
IFNγ release (ELISA), overnight co-culture with SU-DHL-4 (CD19 [2]): 2280 pg/mL
IFNγ release (ELISA), overnight co-culture with Toledo (CD19 [2]): 4570 pg/mL
IL-2 release (ELISA), overnight co-culture with CD19-K562 (CD19 [2]): 616 pg/mL
IL-2 release (ELISA), overnight co-culture with Nalm6 (CD19 [2]): 111 pg/mL
IL-2 release (ELISA), overnight co-culture with ST486 (CD19 [2]): < 16 pg/mL
IL-2 release (ELISA), overnight co-culture with SU-DHL-4 (CD19 [2]): < 16 pg/mL
IL-2 release (ELISA), overnight co-culture with Toledo (CD19 [2]): 55 pg/mL
IFNγ release (ELISA), overnight co-culture with CD20-K562 (CD20 (human) [1]): 43 pg/mL
IL-2 release (ELISA), overnight co-culture with CD20-K562 (CD20 (human) [1]): < 16 pg/mL
IFNγ release (ELISA), overnight co-culture with CD19-K562 (CD19 [3]): 31900 pg/mL
IFNγ release (ELISA), overnight co-culture with Nalm6 (CD19 [3]): 5700 pg/mL
IFNγ release (ELISA), overnight co-culture with ST486 (CD19 [3]): 3610 pg/mL
IFNγ release (ELISA), overnight co-culture with SU-DHL-4 (CD19 [3]): 5190 pg/mL
IFNγ release (ELISA), overnight co-culture with Toledo (CD19 [3]): 6470 pg/mL
IFNγ release (ELISA), overnight co-culture with CD20-K562 (CD20 (human) [4]): 21 pg/mL
IFNγ release (ELISA), overnight co-culture with CD19-K562 (CD19 [5]): 13300 pg/mL
IFNγ release (ELISA), overnight co-culture with Nalm6 (CD19 [5]): 6520 pg/mL
IFNγ release (ELISA), overnight co-culture with ST486 (CD19 [5]): 1430 pg/mL
IFNγ release (ELISA), overnight co-culture with CD20-K562 (CD20 (human) [6]): 808 pg/mL
IFNγ release (ELISA), overnight co-culture with CD19-K562 (CD19 [7]): 13900 pg/mL
IFNγ release (ELISA), overnight co-culture with CD20-K562 (CD20 (human) [8]): 118 pg/mL
